According to doi:10.1101/2020.12.30.424835 (bioRxiv, 2020):

Key:
[1] = biological target: T1, Ctf3 complex (Ctf3, Mcm16, Mcm22), wild type, recombinant (yeast, UniProt Q12748;Q12262;P47167); test: fluorescence polarisation
[2] = biological target: T1, Ctf3 complex (Ctf3, Mcm16, Mcm22), wild …; test: pull-down

T1 sequence (Q12748 whole entry, chain 1 of 3): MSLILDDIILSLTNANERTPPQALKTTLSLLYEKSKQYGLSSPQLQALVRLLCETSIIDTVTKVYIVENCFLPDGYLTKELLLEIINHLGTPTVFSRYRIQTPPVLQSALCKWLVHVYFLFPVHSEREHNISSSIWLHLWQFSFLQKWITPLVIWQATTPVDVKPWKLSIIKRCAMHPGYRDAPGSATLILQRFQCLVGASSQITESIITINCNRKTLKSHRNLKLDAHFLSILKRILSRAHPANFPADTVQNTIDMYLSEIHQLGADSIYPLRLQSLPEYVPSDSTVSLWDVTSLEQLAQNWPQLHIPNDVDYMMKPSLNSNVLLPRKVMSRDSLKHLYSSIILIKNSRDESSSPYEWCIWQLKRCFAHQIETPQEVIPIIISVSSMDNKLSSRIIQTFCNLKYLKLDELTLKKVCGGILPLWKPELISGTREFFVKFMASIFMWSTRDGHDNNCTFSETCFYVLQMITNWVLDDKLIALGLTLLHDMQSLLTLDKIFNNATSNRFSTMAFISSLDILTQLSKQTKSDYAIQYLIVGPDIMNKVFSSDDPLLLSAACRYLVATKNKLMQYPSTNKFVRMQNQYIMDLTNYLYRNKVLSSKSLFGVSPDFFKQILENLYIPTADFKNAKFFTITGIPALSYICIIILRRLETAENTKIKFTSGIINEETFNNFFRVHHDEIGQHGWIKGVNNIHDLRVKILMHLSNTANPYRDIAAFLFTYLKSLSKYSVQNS
T1 sequence (Q12262 whole entry, chain 2 of 3): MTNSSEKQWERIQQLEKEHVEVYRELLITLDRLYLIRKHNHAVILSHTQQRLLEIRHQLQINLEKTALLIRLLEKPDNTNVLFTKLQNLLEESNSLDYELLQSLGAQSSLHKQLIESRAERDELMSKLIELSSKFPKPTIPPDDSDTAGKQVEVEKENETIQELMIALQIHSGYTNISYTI
T1 sequence (P47167 whole entry, chain 3 of 3): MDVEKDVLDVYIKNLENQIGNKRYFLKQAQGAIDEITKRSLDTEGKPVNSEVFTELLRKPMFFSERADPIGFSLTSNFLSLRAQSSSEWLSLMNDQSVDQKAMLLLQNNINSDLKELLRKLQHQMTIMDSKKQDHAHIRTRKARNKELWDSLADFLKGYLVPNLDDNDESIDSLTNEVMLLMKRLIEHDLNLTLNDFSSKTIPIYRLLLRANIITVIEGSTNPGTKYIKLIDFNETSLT

Row | Kd [1] [nM] | binding result [2] | Binder
1 | ~900 | – | DDSDVNLIGSS (fITC-AHA on the N-terminus) [FITC-Ulp2-KIM peptide (fITC-AHA-DDSDVNLIGSS; Ulp2-927-937)]
2 | – | binds | ADSDVNLIGSS (domain or fragment) [GST-Ulp2-KIM 1DA-1 (minimal KIM, D927A)]
3 | – | binds | DDSDVNLIGSS (domain or fragment) [GST-Ulp2-927-937 (minimal Ulp2-KIM, wild type)]
4 | – | binds | DDSDVALIGSS (domain or fragment) [GST-Ulp2-927-937 N932A]
